Holding throughout (experiment): SPR
Background: SPR reads the build-up and loss of mass on a sensor chip optically.

Assay [1] addresses mFcγRII extracellular domain from NOD SCID mice (ly17.1 variant), 6xHis (mouse) (UniProt P08101).
The target in assay [2] is mFcγRII extracellular domain from SCID mice (ly17.2 variant), 6xHis (mouse) (UniProt P08101).
The target of assay [3] is mIgG2a #1 (mouse).
In assay [4] the target is hIgG2 #2 (human).
In assay [5] the target is mIgG1 #1 (mouse).
Assay [6] concerns the target hIgG1 #1 (human).
Assay [7] has as its target hIgG2 #1 (human).
The target of assay [8] is mIgG1 #2 (mouse).
The target of assay [9] is hIgG1 #2 (human).
In assay [10] the target is mIgG2a #2 (mouse).
Assay [11] concerns the target mIgG2a #1 (mouse). This is another data set of the same source.
Assay [12] addresses hIgG2 #2 (human). This is another data set of the same source.
Assay [13] has as its target mIgG1 #1 (mouse). The source holds these as a separate data set.
Assay [14] has as its target hIgG1 #1 (human). This is another data set of the same source.
Assay [15] has as its target hIgG2 #1 (human). The source holds these as a separate data set.
For assay [16], the target named is mIgG1 #2 (mouse). The source holds these as a separate data set.
For assay [17], the target named is hIgG1 #2 (human). The source holds these as a separate data set.
The target in assay [18] is mIgG2a #2 (mouse). This is another data set of the same source.

Like-named read-outs stand apart in the source and are kept apart here.

Sequence of UniProt P08101 (P08101 1-207, change not shown): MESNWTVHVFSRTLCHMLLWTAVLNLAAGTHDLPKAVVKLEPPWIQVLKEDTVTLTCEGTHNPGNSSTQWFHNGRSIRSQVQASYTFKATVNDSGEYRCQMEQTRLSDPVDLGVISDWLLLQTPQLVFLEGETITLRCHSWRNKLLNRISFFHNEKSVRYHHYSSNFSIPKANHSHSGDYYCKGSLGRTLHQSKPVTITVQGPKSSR

For the molecule Rituximab mIgG1 (antibody), the Kd in assay [1] is 2.25 µM; in [2] it was 2.02 µM.
Consider Rituximab mIgG2a (antibody), for which the Kd in assay [1] came out at 2.43 µM; in assay [2], 2.63 µM.
Consider Cetuximab (hIgG1) (antibody), for which the results for the Kd in assay [1] and in [2] were 4.38 µM and 5.42 µM, respectively.

B1: Recombinant mFcγRII (R&D systems) (receptor)
chain: THDLPKAVVKLEPPWIQVLKEDTVTLTCEGTHNPGNSSTQWFHNGRSIRSQVQASYTFKATVNDSGEYRCQMEQTRLSDPVDLGVISDWLLLQTPQLVFLEGETITLRCHSWRNKLLNRISFFHNEKSVRYHHYSSNFSIPKANHSHSGDYYCKGSLGRTLHQSKPVTITVQGPKSSRSLP
As for B1, the Kd with mIgG2a #1 (mouse) [3] amounted to 1.18 µM; with hIgG2 #2 (human) [4], 14.5 µM; with mIgG1 #1 (mouse) [5], 0.274 µM; with hIgG1 #1 (human) [6], 3.02 µM; with hIgG2 #1 (human) [7], 7.65 µM; with mIgG1 #2 (mouse) [8] it was 0.498 µM. The Kd in the assay with hIgG1 #2 (human) [9] stood at 6.61 µM; in the assay with mIgG2a #2 (mouse) [10] it was 1.1 µM; with mIgG2a #1 (mouse) [11] it was 0.0236 µM; with hIgG2 #2 (human) [12], 0.218 µM; with mIgG1 #1 (mouse) [13], 0.00277 µM; in the assay with hIgG1 #1 (human) [14], 0.0492 µM. The dissociation constant Kd with hIgG2 #1 (human) [15] was determined as 0.21 µM; with mIgG1 #2 (mouse) [16], 0.00362 µM; with hIgG1 #2 (human) [17], 0.079 µM; with mIgG2a #2 (mouse) [18], 0.0241 µM.

By Kd is commonly meant the free concentration of one partner at which half of the binding sites on the other are occupied at equilibrium, for simple one-to-one binding. Lower therefore signals tighter binding.

The values above are taken from article PMC7304853.
